Reference: the supplement of paper PMC9170038

System: MS2 coat protein
Assay: apparent KD of MS2 coat protein; designed switch direction (-1 OFF switch, 1 ON switch): 1; higher = weaker reporter binding
In short: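 On Illumina chips, designed RNA switches with common flanks were made by stalled E. coli RNA polymerase. Titrations with SNAP-549-labelled MS2 coat protein, doubling from 0.7 or 1.5 nM to 3 µM, were done with no input, with 200 uM small-molecule ligand, or with an oligonucleotide input. Apparent KD is the median per design over clusters, from curve fits of normalised cluster fluorescence.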

[1] = input ligand: microRNA oligo, concentration not stated
[2] = Eterna round: R95, input ligand: FMN 200 uM
[3] = Eterna round: R95, input ligand: microRNA oligo, concentration not stated
[4] = Eterna round: R95, input ligand: none

| Sequence | apparent KD of MS2 coat protein (input ligand: FMN 200 uM) | apparent KD of MS2 coat protein [1] | apparent KD of MS2 coat protein (input ligand: none) | apparent KD of MS2 coat protein [2] | apparent KD of MS2 coat protein [3] | apparent KD of MS2 coat protein [4] |
| --- | --- | --- | --- | --- | --- | --- |
| ACCCGCGACGGAGGAUAUGGGCACUCGGCGGAAUAAACCGCCAUAACAUGAGGAUCACCCAUGUCCCAGAAGGCCGUCGCAAUC [Zaonesdive] (Eterna round: R96, puzzle: Same State NG 2) | 107 nM | 303 nM | 2620 nM |  |  |  |
| UGGUACAUGGGAGGAUAUGGGCAAGAGACAUGAGGAUCACCCAUGUAUUAAAAGCCGAAAGGCAUCUAGAAGGCCCAUGUACCU [JL SSNG1 3.86] (Eterna round: R96, puzzle: Same State NG 2) | 13.3 nM | 55.9 nM | 86.7 nM |  |  |  |
| ACAUGAGACCAAGGAUAUGUUGUACCUACAUGUGACAUGAGGAUCACCCAUGUGGUAAGUAUGAGACAGAAGGUGGAGAUAUGU [Equivalence 27 - Jieux - Same State NG 2] (Eterna round: R96, puzzle: Same State NG 2) | 16.9 nM | 44.3 nM | 33.2 nM |  |  |  |
| UUUAUAUUCAGAGGAUAUUGAUGUUGUAUUUUACAAGAAGGCUGUUUGUUUUGUAAUGUUAUUAUACAUGAGGAUCACCCAUGU [JR_SSNG1_Sub015] (Eterna round: R96, puzzle: Same State NG 1) |  | 16.8 nM |  |  |  |  |
| UGGUACAUGGGAGGAUAUGGGCAUGAGACAUGAGGAUCACCCAUGUAUUAAAAGCCGAAAGGCAUCUAGAAGGCCCAUGUACCU [JL SSNG1 3.85] (Eterna round: R96, puzzle: Same State NG 2) | 17.1 nM | 137 nM | 214 nM |  |  |  |
| AUCUCUGUGCCGCAGGAUAUACCAACGGCUACAUGAGGAUCACCCAUGUCAUACCGUCGAAAAUGGUAGAAGGGUGUGCACGAGC [Leesmala] (puzzle: Same State 2) |  |  |  | 16.4 nM | 45.5 nM | 61.3 nM |
| GGAGCCGGUACUGAGGAUAUUCAUCUUAAAACAUGAGGAUCACCCAUGUAGGCCAGAAGGCCUUGGGAGAAGGCAGAUCGGCUCC [Biseusra - 7] (puzzle: Same State 2) |  |  |  | 20 nM | 52.2 nM | 66 nM |
| AAAAGACAUGAGGAUCACCCAUGUGAAAACAUACAAGGAUAUGUGUGGAAACCGUACUAUACAGAAGGUGUAUGUC [SS1 - 85] (Eterna round: R96, puzzle: Same State 1) |  | 25.1 nM |  |  |  |  |
| GUGGUCAGACAUGAGGAUCACCCAUGUGGAAUAAAUAAGGAGAAGGAUAUAGAAUAUAGGAUAUACUAGAAGGUCUGGUUGGUG (Eterna round: R96, puzzle: Same State NG 3) |  | 63.7 nM |  |  |  |  |
| UGGUACAUGGGAGGAUAUCAUGUAGAAACAUGAGGAUCACCCAUGUAGGUGGCCGGUAACCGGAAUGAGAAGGCCCAUGUACCU [JL SSNG1 3.62] (Eterna round: R96, puzzle: Same State NG 2) | 48.6 nM | 48.6 nM | 61.1 nM |  |  |  |
| UCCGCUAUCUAGAAGGAUAUGCGUAAAUAAACAUGAGGAUCACCCAUGUACCGGCGAAAGCCGGUGCAGAAGGUUUAGCUAGUGA [Xeisgexe] (puzzle: Same State 2) |  |  |  | 38.2 nM | 574 nM | 390 nM |
| AUAAGUUCGAUGCUCGUCUCUCCGUACAAACAUGAGGAUCACCCAUGUGAUUGGGCAAUAGCCCAAUCAGUAUGACC [Gemaa] (puzzle: Sensor for hsa-mir-208a) |  |  |  | 38.1 nM | 26 nM | 41.5 nM |
| UGUCCAGCCUGAGCUGGACAAAAGCAUGUACAUGAGGAUCACCCAUGUUCAUGUACAAGCUUUUUGCUCGUCUUACA [salish99_208a_r3_080] (puzzle: Sensor for hsa-mir-208a) |  |  |  | 347 nM | 15.2 nM | 529 nM |
| GCUAGAAAUAAUGCCAACAUGAGGAUCACCCAUGUAUGUUGGCAGGAUAUCGUAUGCAAAGCAUACGAGAAGGGCUAAACUAGC [Mat - Same State NG 3 - JL Mod - D9] (Eterna round: R96, puzzle: Same State NG 3) | 217 nM | 190 nM | 231 nM |  |  |  |
| AGUCCAGCCAGAGCUGGACAAAAGCAUGUACAUGAGGAUCACCCAUGUUCAUGUACAAGCUUUUUGCUCGUCUUAAA [Mat - hsa-mir-208a - Mod of JL - 55] (puzzle: Sensor for hsa-mir-208a) |  |  |  | 545 nM | 15 nM |  |
| GGUAGGUUACUACCAGACAUGAGGAUCACCCAUGUAAGUGGGAAGGAUAUGGUACCUUUUAGGUACCAGAAGGUCCAUAUAGUU [JL SSNG3 1.43] (Eterna round: R96, puzzle: Same State NG 3) | 253 nM | 429 nM | 1080 nM |  |  |  |
| ACAAGCUUUUUGCUCAUCUUAUGUCCGAAACAUGAGGAUCACCCAUGUGUAGAUUAUGUGUUGUUUUUGAUACGAGA [JR_SHM208A_Sub065] (puzzle: Sensor for hsa-mir-208a) |  |  |  | 68.1 nM | 28.4 nM | 80.3 nM |
| AAUUAUUGACAUGAGGAUCACCCAUGUAAAGCAUGGAUUAACAAGCUACAAGCUUUUUGCUCGUCUUAUCCUAUAGG [Improved Bojan's design] (puzzle: Sensor for hsa-mir-208a version 2) |  |  |  | 55.9 nM | 34.6 nM | 58.1 nM |
| AGAAAACAUGAGGAUCACCCAUGUAUAGUGAAUACAGGAUAUCACCGGCUGAAAAGCCGGUGAGAAGGGUGAUCGC [Atorenri] (puzzle: Same State 1) |  |  |  | 149 nM | 18.6 nM | 7.7 nM |
| GGUCGGACUCACAUGAGGAUCACCCAUGUUGCGGAAACGCAGCAGGAUAUCUGUCCGAAAAGGUCAGAGAAGGGCUAACCGACC [Fiskers NG3ss - 57] (Eterna round: R96, puzzle: Same State NG 3) | 197 nM | 596 nM | 1310 nM |  |  |  |
| UUGAAUAAUUAAGGAUAUCGAGUACAUAUGUUAAACAUGAGGAUCACCCAUGUGGGUUGCGGUAUCGAGAAGGUAAAAGAAAAG [Mat - Same State NG 2 - JL mod - D60] (Eterna round: R96, puzzle: Same State NG 2) | 32.6 nM | 21.9 nM | 35.8 nM |  |  |  |
| UUUGGGUGGCUGGAGGAUAUUCUUGUGGUUACAUGAGGAUCACCCAUGUGUCGCGCGGUGCGCGAGGAGAAGGCUGGCGGCCGUU (puzzle: Same State 2) |  |  |  |  | 186 nM |  |
| UAUGAAUAGCAAGGAUAUUGAUAACAUGAGGAUCACCCAUGUAAUUGAUCGAGUUAGAUCAGUUACAAGAAGGUGCAAUUGAUU [JR_SSNG2_Sub035] (Eterna round: R96, puzzle: Same State NG 2) |  | 19.4 nM |  |  |  |  |
| GGAAGGAGGUCAGGAUAUGGAUGGAAGGUACAUGAGGAUCACCCAUGUUACGGAGGAAGGAAACGUUAGAAGGGAUAAGGAAGG [AK SSNG2-V2-2.1] (Eterna round: R96, puzzle: Same State NG 2) | 34.7 nM | 24.9 nM | 31.8 nM |  |  |  |
| AAUAUUAAUGCAGGAUAUGAUUAACAUGAGGAUCACCCAUGUGGUGUUGUGAGUAAGGAGAGUGAUCAGAAGGGCAUUUUUUUU [JMF's solution 36] (Eterna round: R96, puzzle: Same State NG 2) | 648 nM | 349 nM | 529 nM |  |  |  |
| CCGUAAUAUGGAGGAUAUGGAGCCUUAUUGGCUCCAGAAGGUCAUAAAACAUGAGGAUCACCCAUGUCGGCGGUCAAUAGACCG [Eli NG1ss - 77] (Eterna round: R96, puzzle: Same State NG 1) |  | 42.6 nM |  |  |  |  |
| CGUCCGGCCUGUGCUGGCCGGAAGCUUGUACAUGAGGAUCACCCAUGUUCAUGUGCAGGCUUUUUGCUCGUCUUGUG [salish99_mir208a_009] (puzzle: Sensor for hsa-mir-208a) |  |  |  | 26.4 nM | 30.9 nM | 32.2 nM |
| GUAGCAUACCGAGGAUAUUCAUAUAAUAACAUGAGGAUCACCCAUGUUUAUAGGCGAAAGCCUUGGGAGAAGGCGGAAUGCUAC [Xeonanis - 20 Mod63] (Eterna round: R96, puzzle: Same State NG 2) | 10.4 nM | 12.3 nM | 18.8 nM |  |  |  |
| GAGUGGCAGUUAGGAUAUGUAGUGAUAAUGAUAACAGAAGGAACAGACAUGAGGAUCACCCAUGUAGGACUAAUCCAGAGAGAG [Parity 35 - Jieux - Same State NG 1] (Eterna round: R96, puzzle: Same State NG 1) | 26.2 nM | 25.7 nM | 34.2 nM |  |  |  |
